Measurements published in publication PMC4823152.
Read-outs that look alike come from different tables or passages of the source.

How the values were obtained:
Test in all cases: cryo-EM structure
[1] = target: φEL chaperonin (gene product 146 of Pseudomonas phage EL) (Pseudomonas phage EL)
[2] = target: φEL chaperonin (gene product 146 of Pseudomonas phage EL) (Pseudomonas phage EL); remark: listed apart in the source
[3] = target: φEL chaperonin (gene product 146 of Pseudomonas phage EL) (Pseudomonas phage EL); remark: listed apart in the source

## φEL chaperonin (gene product 146 of Pseudomonas phage EL) (natural protein)
[1]
  stoichiometry N: 7
[2]
  stoichiometry N: 14
[3]
  stoichiometry N: 14
